Source: patent US12410253B2, “Compositions comprising anti-NRP2 antibodies” (aTyr Pharma, Inc., priority 2019, dated 2025)

Target: T1, NRP2/KDR(VEGFR2) (Homo sapiens, UniProt O60462)
T1 construct: The complete extracellular domain and transmembrane helices of NRP2a (version 2), NRP2b (version 5); expressed in transfected cells; host or cells: Expi293, transient co-transfection
T1 sequence (O60462 23-859 isoform O60462-3 limits assumed): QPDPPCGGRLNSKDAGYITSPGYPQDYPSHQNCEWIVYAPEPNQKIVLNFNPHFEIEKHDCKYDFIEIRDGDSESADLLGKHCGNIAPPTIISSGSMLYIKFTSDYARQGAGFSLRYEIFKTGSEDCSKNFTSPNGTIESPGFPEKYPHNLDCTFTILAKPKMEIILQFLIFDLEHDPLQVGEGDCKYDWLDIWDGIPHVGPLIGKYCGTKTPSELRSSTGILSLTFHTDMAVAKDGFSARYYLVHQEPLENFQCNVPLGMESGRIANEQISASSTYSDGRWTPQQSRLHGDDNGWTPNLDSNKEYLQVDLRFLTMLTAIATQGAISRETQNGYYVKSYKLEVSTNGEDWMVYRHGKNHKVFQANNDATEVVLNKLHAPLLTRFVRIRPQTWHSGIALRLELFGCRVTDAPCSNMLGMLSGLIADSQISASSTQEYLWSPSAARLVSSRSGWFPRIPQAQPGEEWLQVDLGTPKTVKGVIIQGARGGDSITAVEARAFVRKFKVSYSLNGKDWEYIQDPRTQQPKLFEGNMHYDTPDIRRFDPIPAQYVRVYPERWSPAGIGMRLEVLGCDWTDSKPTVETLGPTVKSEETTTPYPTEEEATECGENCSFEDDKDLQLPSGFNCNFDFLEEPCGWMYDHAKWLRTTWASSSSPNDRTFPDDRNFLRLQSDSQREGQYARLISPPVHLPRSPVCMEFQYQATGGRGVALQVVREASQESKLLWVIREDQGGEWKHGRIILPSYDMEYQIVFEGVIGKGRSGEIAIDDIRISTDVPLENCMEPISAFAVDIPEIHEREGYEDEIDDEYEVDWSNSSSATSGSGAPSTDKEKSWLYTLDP
Test: Split-luciferase receptor dimerization assay, NRP2/KDR with VEGF-A
Assay type: cell-based
Settings: antibody 100 nM; ligand induced dimerization
Procedure: To further extend the assessment of the biological activity of the anti-NRP2 antibodies, their activity was assessed in a receptor dimerization assay. In brief, vectors encoding a split luciferase pBiT1.1 and pBiT2.1 were obtained from Promega corporation (Madison, Wisconsin). The complete extracellular domain and transmembrane helices of NRP2a (version 2), NRP2b (version 5) (See table N1), FLT4 (VEGFR3), KDR (VEGFR2), and plexin A1 (PLXNA1) were cloned into the vectors and screened for optimal orientation, receptor density, and ligand induced dimerization, following established methods. […] Cells were counted, and 100,000 live cells were plated in a well of a white luminometer plate in Live Cell Imaging Solution (Fisher). Nano-Glo assay substrate (Promega) was added, and the plate was read on a Glomax 96 luminometer at room temperature to establish baseline luminescence. Antibodies were added to the well at 100 nM and the plate was again read to establish a new baseline and monitor the effects of the antibodies on spontaneous receptor dimerization. Depending on the receptor pair, typically 200 nM SEMA3F-p95 (aTyr Pharma), 2 nM VEGF-C(R&D Systems, Minnesota), or 2 nM VEGF165 (R&D Systems, Minnesota) were then added and the plate was again read to measure dimerization of receptors. […]

B1: aNRP2-11v7: humanized, affinity matured anti-NRP2 antibody, target domain b2; VH SEQ ID NO: 51, VL SEQ ID NO: 52 (antibody, V domains shown)
VH: QVQLVQSGAEVKKPGASVKVSCKASGYTFTSFGISWVRQAPGQGLEWIGEIYPRSGNTYYNENFKGRATMTADKSTSTAYMELRSLRSDDTAVYYCARSSGYYGSTPFPYWGQGTLVTVSS
VL: DIQMTQSPSSLSASVGDRVTITCRASQDISNYLNWYQQKPGKAVKLLIYYTSRLHSGVPSRFSGSGSGTDYTFTISSLQPEDIATYYCQQGNTLPWTFGGGTKVEIK
modifications: Variable heavy chain region; Light chain variable region
- effect on NRP2-KDR dimerization (in words): increased the ligand induced dimerization signal
